This note sets out measurements from patent US20050054090A1 (Scripps Research, published 2005).

The experiment concerns the target T1, murine IA^d MHC class II heterodimer expressed on the surface of Drosophila S2 cells (murine, UniProt P04228 24-256; P01921 28-265).
T1 construct: whole, on cells; Expressed without peptide on Drosophila S2 cells, alone or with accessory molecules; also called H2-A^d; recombinant MHC class II
T1 sequence (MHC II alpha, looked up): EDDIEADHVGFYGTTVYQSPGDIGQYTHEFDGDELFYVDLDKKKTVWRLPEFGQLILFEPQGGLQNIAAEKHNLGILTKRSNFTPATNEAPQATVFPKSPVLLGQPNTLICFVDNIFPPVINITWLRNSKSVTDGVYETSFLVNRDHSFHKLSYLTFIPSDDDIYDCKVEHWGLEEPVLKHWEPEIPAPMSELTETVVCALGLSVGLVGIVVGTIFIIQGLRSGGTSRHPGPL
T1 sequence (MHC II beta, looked up): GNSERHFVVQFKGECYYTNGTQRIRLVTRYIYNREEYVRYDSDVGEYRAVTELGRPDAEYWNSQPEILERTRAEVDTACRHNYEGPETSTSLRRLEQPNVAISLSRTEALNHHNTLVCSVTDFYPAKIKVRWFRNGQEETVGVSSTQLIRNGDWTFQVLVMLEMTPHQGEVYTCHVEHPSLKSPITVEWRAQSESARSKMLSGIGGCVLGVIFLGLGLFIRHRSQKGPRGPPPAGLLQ
Description: inferred by the filing from OVA-peptide-dose-dependent T cell proliferation with peptide-loaded Drosophila APC; no direct binding assay. As for the experimental part:
Proliferation is assayed as described in Example 5. The proliferation is measured in counts per minute (cpm)×1000 as plotted on the Y-axis against increasing concentrations of OVA peptide in μM on the X-axis. […] Proliferative responses with recombinant MHC class II alone are shown in the line having closed circles. Those with MHC class II combined with either costimulatory molecules B7.1 or B7.2 are shown respectively with lines having open and closed squares.
The effect of peptide presentation in the presence of MHC class II with and without accessory molecules, B7.1, B7.2 or B7.2 plus ICAM-1, was first assessed in a proliferation assay performed as described by Webb et al., Cell, 63:1249 (1990). Briefly, 5×10⁴ CD4⁺ T cells were cultured in microtiter wells with 5×10⁴ Drosophila cells in 300 μl of culture medium. Eighteen hours prior to harvesting, 100 μl of supernatant were removed for cytokine analysis and 1 μCi of ³H-thymidine was added to each well. At the times indicated (3, 4 or 5 days), the wells were individually harvested onto glass fiber filters and counted in a liquid scintillation counter.

B1: ovalbumin323-339 (OVA) peptide (peptide)
peptide: ISQAVHAAHAEINEAGR
notes: Chemically synthesized by T-BOC chemistry and added to the cultures; also called ovalbumin peptide 323-339
For the molecule B1, the binding result is “binds”.
